B1: HDV Ribozyme (parent)
chain: GGCCGGCAUGGUCCCAGCCUCCUCGCUGGCGCCGGCUGGGCAACAUUCCGAGGGGACCGUCCCCUCGGUAAUGGCGAAUGGGACCCA

Variants of: B1
Test: self-cleavage, relative activity (ratio to wild type); higher = more cleavage; co-transcriptional

Row | Variant | self-cleavage
1 | G54C G73C | 0.502
2 | G53C A77G | 0.88
3 | G52U U72A | 0.496
4 | G54U A56U | 0.953
5 | G54C U60G | 0.895
6 | G53C G74A | 0.405
7 | G52C G82A | 0.712
8 | G53U C86G | 1.12
9 | G54A A77C | 0.383
10 | G52C G76A | 0.976
11 | G53C C64G | 0.268
12 | G53A G80C | 0.351
13 | G53U C75A | 0.117
14 | G54A G59A | 1.01
15 | G54A G59C | 1.07
16 | G54C G76A | 1.1
17 | G53U U65C | 0.819
18 | G53C C86A | 0.866
19 | G54A C58A | 0.773
20 | G54A C58U | 1.22
21 | G54A G68C | 0.173

Row | Variant | self-cleavage
22 | G53C G81C | 0.0665
23 | G53U C85G | 0.818
24 | G54C G68C | 0.346
25 | G54C A87C | 1.02
26 | G53U C57A | 0.944
27 | G52C U65G | 1.04
28 | G54C A78C | 0.191
29 | G54C A78U | 0.324
30 | G54C A78G | 0.507
31 | G53U C61U | 0.994
32 | G53U C61G | 0.899
33 | G53A U60C | 0.935
34 | G53U A77G | 0.8
35 | G54A A70U | 0.843
36 | G53A U65G | 0.708
37 | G53C G76C | 0.991
38 | G53C G76A | 0.882
39 | G53C C57A | 0.95
40 | G53A U79G | 0.554
41 | G53A G82C | 0.246
42 | G53A G82U | 0.359

Row | Variant | self-cleavage
43 | G52C G73C | 0.339
44 | G53A G54U | 0.962
45 | G53U G67C | 0.534
46 | G52U G80A | 0.528
47 | G52U G80C | 0.241
48 | G53U G68A | 0.903
49 | G52C U60G | 0.944
50 | G52C U60A | 1.02
51 | G54C G59C | 1.21
52 | G54C A56G | 0.808
53 | G53A C63U | 0.812
54 | G53C C85A | 0.955
55 | G53C C85G | 1.01
56 | G53U A71U | 0.92
57 | G54A U72C | 0.61
58 | G54A U72G | 0.453
59 | G52U A70U | 0.831
60 | G52U A70C | 0.577
61 | G52U A71G | 0.901
62 | G54C C62A | 0.967
63 | G52C C61G | 0.886

Row | Variant | self-cleavage
64 | G53U G76A | 1.09
65 | G54C C86A | 0.962
66 | G54C C86G | 1.02
67 | G53U A78U | 0.251
68 | G52C C84U | 0.537
69 | G54A A87C | 1.06
70 | G52C G54U | 0.513
71 | G53A C84U | 0.777
72 | G53U U60A | 0.997
73 | G53C G59C | 0.958
74 | G53C G59A | 0.95
75 | G53U A83U | 0.609
76 | G54A C63A | 0.831
77 | G53A C61G | 0.751
78 | G53C G55C | 1.05
79 | G54U C61U | 0.895
80 | G53A A77U | 0.483
81 | G52C G53A | 0.733
82 | G52U C75G | 0.297
83 | G52U A77U | 0.743

From the RNAGym collection of RNA variant scans (doi:10.7554/elife.80360)
